Results published in article PMC6891087 (2019).

Target: unmodified nucleosome core particle (human | Xenopus laevis, UniProt P04908 1-130; P06899 1-126)
Test: SPR

B1: CPC_LM containing the Survivin BIR mutant K62/E65/H80A (complex)
chain 1: MAPRKGSSRVAKTNSLRRRKLASFLKDFDREVEIRIKQIESDRQNLLKEVDNLYNIEILRLPKALREMNWLDYFALGGNKQALEEAATADLDITEINKLTAEAIQTPLKSAKTRKVIQVDEMIVEEEEEEENERKNLQTARVKRCPPSKKRTQSIQGKGKGKRSSRANTVTPAVGRLEVSMVKPTPGLTPRFDSRVFKTPGLRTPAAGERIYNISGNGSPLADSKEIFLTVPVGGGESLRLLASDLQRHSIAQLDPEALGNIKKLSNRLAQICSSIRTHK
chain 2: MGAPTLPPAWQPFLKDHRISTFKNWPFLEGCACTPERMAEAGFIHCPTENEPDLAQCFFCFAELAGWEPDDDPIEEHKKASSGCAFLSVKKQFEELTLGEFLKLDRERAKNKIAKETNNKKKEFEETAKKVRRAIEQLAAMD
chain 3: MGTTAPGPIHLLELCDQKLMEFLCNMDNKDLVWLEEIQEEAERMFTREFSKEPELMPK
Kd: 309 nM
